Here are results for 18 molecules from patent publication US20250032576A1, “CNP Therapy” (BIOMARIN PHARMACEUTICAL INC., priority 2021, published 2025).

Residue numbers refer to the chain shown, from its start. “And” between values parts separate entries of the source, which are not always exact repeats. Equal entries are not always repeated. Where two headings read alike, the source gives them in different places. No end group written: not given here.

Assay [1] has as its system lumbar vertebral nppc expression, plasma NTproCNP. The following applies: cited from earlier work.
In another assay the test system is plasma NTproCNP. The conditions noted are these: short non Ach children starting daily HGH, day 21; cited from earlier work.
The subject of another assay is NPR2. Kind of assay: cGMP catchpoint assay of NPR2 variants in transfected HEK293 cells treated with 20 nM CNP. The class given is cell-based. The conditions noted are these: for average phenotype: cGMP normalized to RedLuciferase and to WT = 1, HEK293, 20 nM CNP, 0.4 nM IBMX, at least 3 repeat experiments with 4 replicates each; for Lable: high-confidence variant class. More on the design: key to Lable: loss-of-function (LoF); Gain-of-function (GoF). Put shortly: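 HEK293 cells transfected with NPR2 variant constructs; 3 days later stimulated with 20 nM CNP plus […] IBMX in serum-free DMEM. cGMP by competitive ELISA against a standard curve, normalized to RedLuc transfection control and to WT = 1; mean of ≥3 experiments, 4 replicates each.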

For the molecule “CNP 53: active 53-amino acid peptide generated from pro-CNP by furin cleavage (DLRVDTKSRAAWARLLQEHPNARKYKGANKKGLSKGCFGLKLDRIGSMSGLGC; ends and bridges not checked; cysteine pairing not given here; UniProt P23582 74-126, looked up)”, the “lumbar vertebral nppc expression” value in assay [1] (3 days continuous high dose intravenous infusion) is “significantly reducing”. In addition, the “plasma NTproCNP” value is “small decline” in assay [1] (females (n=6)) and “did not reduce” in assay [1] (male rats (n=6)).
With “Human Growth Hormone [Human Growth Hormone (HGH)]”, in the assay on plasma NTproCNP, the “increase in NTproCNP, delta” value was 22% and the “increase in NTproCNP, mean” value is reported as 11 pmol/L.

B1: Pro301Ser: NPR2 protein-altering variant, expression construct transfected into HEK293 cells (protein)
chain: RNLTLAVVLPEHNLSYAWAWPRVGPAVALAVEALGRALPVDLRFVSSELEGACSEYLAPLSAVDLKLYHDPDLLLGPGCVYPAASVARFASHWRLPLLTAGAVASGFSAKNDHYRTLVRTGPSAPKLGEFVVTLHGHFNWTARAALLYLDARTDDRPHYFTIEGVFEALQGSNLSVQHQVYAREPGGPEQATHFIRANGRIVYICGPLEMLHEILLQAQRENLTNGDYVFFYLDVFGESLRAGPTRATGRPWQDNRTREQAQALREAFQTVLVITYRESPNPEYQEFQNRLLIRAREDFGVELGPSLMNLIAGCFYDGILLYAEVLNETIQEGGTREDGLRIVEKMQGRRYHGVTGLVVMDKNNDRETDFVLWAMGDLDSGDFQPAAHYSGAEKQIWWTGRPIPWVKGAPPSDNPPCAFDLDDPSCDKTPLSTLAIVALGTGITFIMFGVSSFLIFRKLMLEKELASMLWRIRWEELQFGNSERYHKGAGSRLTLSLRGSSYGSLMTAHGKYQIFANTGHFKGNVVAIKHVNKKRIELTRQVLFELKHMRDVQFNHLTRFIGACIDPPNICIVTEYCPRGSLQDILENDSINLDWMFRYSLINDLVKGMAFLHNSIISSHGSLKSSNCVVDSRFVLKITDYGLASFRSTAEPDDSHALYAKKLWTAPELLSGNPLPTTGMQKADVYSFGIILQEIALRSGPFYLEGLDLSPKEIVQKVRNGQRPYFRPSIDRTQLNEELVLLMERCWAQDPAERPDFGQIKGFIRRFNKEGGTSILDNLLLRMEQYANNLEKLVEERTQAYLEEKRKAEALLYQILPHSVAEQLKRGETVQAEAFDSVTIYFSDIVGFTALSAESTPMQVVTLLNDLYTCFDAIIDNFDVYKVETIGDAYMVVSGLPGRNGQRHAPEIARMALALLDAVSSFRIRHRPHDQLRLRIGVHTGPVCAGVVGLKMPRYCLFGDTVNTASRMESNGQALKIHVSSTTKDALDELGCFQLELRGDVEMKGKGKMRTYWLLGERKGPPGLL
Turning to B1, in the assay with NPR2, the average phenotype worked out at 0.08478 and the Lable result is reported as “LoF”.

B2: Lys629Arg: NPR2 protein-altering variant, expression construct transfected into HEK293 cells (protein)
chain: B1 chain with S279P, K607R
Take B2: in the assay with NPR2, the average phenotype came to 1.493 and the Lable entry is given as “GoF”.

B3: Gly209Val: NPR2 protein-altering variant, expression construct transfected into HEK293 cells (protein)
chain: B1 chain with G187V, S279P
In the case of B3, in the assay on NPR2, the average phenotype was 0.08861 and the Lable entry is recorded as “LoF”.

B4: Val553Leu: NPR2 protein-altering variant, expression construct transfected into HEK293 cells (protein)
chain: B1 chain with S279P, V531L
Regarding B4, in the assay on NPR2, the average phenotype was determined as 1.515 and the Lable result is “GoF”.

B5: Thr377Asn: NPR2 protein-altering variant, expression construct transfected into HEK293 cells (protein)
chain: B1 chain with S279P, T355N
As to B5, in the assay with NPR2, the average phenotype came to 0.01062 and the Lable entry is “LoF”.

B6: Glu727Gln: NPR2 protein-altering variant, expression construct transfected into HEK293 cells (protein)
chain: B1 chain with S279P, E705Q
For B6, in the assay on NPR2, the average phenotype is given as 1.705 and the Lable result was “GoF”.

B7: His552Arg: NPR2 protein-altering variant, expression construct transfected into HEK293 cells (protein)
chain: B1 chain with S279P, H530R
Take B7: in the assay on NPR2, the average phenotype came out at 1.794 and the Lable result is given as “GoF”.

B8: Lys367Glu: NPR2 protein-altering variant, expression construct transfected into HEK293 cells (protein)
chain: B1 chain with S279P, K345E
As for B8, in the assay on NPR2, the average phenotype is given as 0.01438 and the Lable result is “LoF”.

B9: Glu359Ala: NPR2 protein-altering variant, expression construct transfected into HEK293 cells (protein)
chain: B1 chain with S279P, E337A
Consider B9, for which, in the assay on NPR2, the average phenotype came to 2.998 and the Lable entry was “GoF”.

B10: Arg776Trp: NPR2 protein-altering variant, expression construct transfected into HEK293 cells (protein)
chain: B1 chain with S279P, R754W
As for B10, in the assay with NPR2, the average phenotype stood at 0.01312 and the Lable result is “LoF”.

B11: HIS508Asp: NPR2 protein-altering variant, expression construct transfected into HEK293 cells (protein)
chain: B1 chain with S279P, H486D
For B11, in the assay on NPR2, the average phenotype was found to be 1.74 and the Lable result is recorded as “GoF”.

B12: Arg562Gln: NPR2 protein-altering variant, expression construct transfected into HEK293 cells (protein)
chain: B1 chain with S279P, R540Q
Turning to B12, in the assay on NPR2, the average phenotype was 1.554 and 1.629; the Lable entry is recorded as “GoF”.

B13: Thr907Met: NPR2 protein-altering variant, expression construct transfected into HEK293 cells (protein)
chain: B1 chain with S279P, T885M
B13: in the assay with NPR2, the average phenotype came to 0.01456 and the Lable result was “LoF”.

B14: Lys480Asn: NPR2 protein-altering variant, expression construct transfected into HEK293 cells (protein)
chain: B1 chain with S279P, K458N
In the case of B14, in the assay on NPR2, the average phenotype turned out to be 1.689 and the Lable result is given as “GoF”.

B15: Ala59Thr: NPR2 protein-altering variant, expression construct transfected into HEK293 cells (protein)
chain: B1 chain with A37T, S279P
Regarding B15, in the assay with NPR2, the average phenotype was 3.735 and the Lable result is “GoF”.

B16: Arg263His: NPR2 protein-altering variant, expression construct transfected into HEK293 cells (protein)
chain: B1 chain with R241H, S279P
Regarding B16, in the assay on NPR2, the average phenotype worked out at 1.863 and the Lable result was “GoF”.
